According to US5851528:

Experiments:
C3/C5 convertases [1] = molecular target: C3/C5 convertases
C3/C5 convertases [2] = molecular target: C3/C5 convertases; remark: listed apart in the source
[3] = molecular target: C5 convertase (formed in human serum) (human)

IC50, inhibition of C5a production in human serum (competition radioimmunoassay for C5a desArg) [3] [nM] | Substance | IC50, inhibition of classical pathway complement-mediated lysis of IgM-sensitized sheep RBC by human serum (C3/C5 convertases [1]) [nM] | IC50, inhibition of alternative pathway complement-mediated lysis of unsensitized guinea pig RBC by human serum (C3/C5 convertases [2]) [nM]
 | soluble DAF (sDAF), soluble decay accelerating factor (from UniProt P08174) | 100 | 
300 | CAB-2 (complement activation blocker-2), recombinant chimeric protein encoded by the MCP-DAF expression vector | 30 | 100
 | mixture of sMCP + sDAF added together on an equal molar basis (pool or library) | 200 | 
5000 | soluble MCP (sMCP), soluble membrane cofactor protein recombinant protein (from UniProt P15529-3) | 7000 | 350
